Experimental data published in CN106467574A (UNIV FUDAN, dated 2017).

Experiments:
[1] = biological target: 人源TF, 细胞表面TF (human tissue factor on the surface of human tumour cells) (human, UniProt P13726 33-295); experiment: cell-based or functional assay
[2] = biological target: T1, 鼠源TF (mouse tissue factor on B16-F10 cells) (mouse, UniProt P20352 29-294); experiment: flow cytometry on B16-F10 cells
T1 construct: whole, on cells
T1 sequence (looked up): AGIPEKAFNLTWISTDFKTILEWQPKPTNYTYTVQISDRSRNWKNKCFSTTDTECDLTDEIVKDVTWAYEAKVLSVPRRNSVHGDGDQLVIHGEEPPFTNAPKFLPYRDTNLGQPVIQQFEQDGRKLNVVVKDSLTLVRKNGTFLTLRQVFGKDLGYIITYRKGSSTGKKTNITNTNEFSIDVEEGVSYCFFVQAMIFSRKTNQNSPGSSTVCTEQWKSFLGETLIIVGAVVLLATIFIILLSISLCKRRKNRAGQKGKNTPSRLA

B1: TF-mAb-SC1 (antibody, IgG2b, V domains shown)
VH: QVQLQQPGAELVRPGASVKLSCKASGYSFISYWMNWVKQRPGQGLEWIGMIYPADSETRLNQKFKDKATLTVDKSSSTAYMQLSSPTSEDSAVYYCAREDYGSSDYWGQGTTLTVSS
VL: EILLTQSPAIIAASPGEKVTITCSASSSVSYMNWYLQKPGSSPKIWIYGISNLASGVPARFSGSGSGTSFSFTINSMETEDVATYYCQQKSSFPWTFGGGTKLEIK
notes: Mouse monoclonal antibody from a hybridoma, purified from ascites
[1]
  抗FXa生成活性 IC50 (BxPC-3 cells): 9 nM
  抗FXa生成活性 IC50 (MDA-MB-231 cells): 6.4 nM
[2]
  binding result: no binding (tested: 10μg/mL)
